These are literature values, as cited in PMC3814599.

“And” between values parts separate entries of the source, which are not always exact repeats. Equal values may be shown once.

The target of this data set is HIV-1 capsid (CA) NTD (Human immunodeficiency virus 1) (UniProt O93182).

Chain of NUP358 (P49792 whole entry): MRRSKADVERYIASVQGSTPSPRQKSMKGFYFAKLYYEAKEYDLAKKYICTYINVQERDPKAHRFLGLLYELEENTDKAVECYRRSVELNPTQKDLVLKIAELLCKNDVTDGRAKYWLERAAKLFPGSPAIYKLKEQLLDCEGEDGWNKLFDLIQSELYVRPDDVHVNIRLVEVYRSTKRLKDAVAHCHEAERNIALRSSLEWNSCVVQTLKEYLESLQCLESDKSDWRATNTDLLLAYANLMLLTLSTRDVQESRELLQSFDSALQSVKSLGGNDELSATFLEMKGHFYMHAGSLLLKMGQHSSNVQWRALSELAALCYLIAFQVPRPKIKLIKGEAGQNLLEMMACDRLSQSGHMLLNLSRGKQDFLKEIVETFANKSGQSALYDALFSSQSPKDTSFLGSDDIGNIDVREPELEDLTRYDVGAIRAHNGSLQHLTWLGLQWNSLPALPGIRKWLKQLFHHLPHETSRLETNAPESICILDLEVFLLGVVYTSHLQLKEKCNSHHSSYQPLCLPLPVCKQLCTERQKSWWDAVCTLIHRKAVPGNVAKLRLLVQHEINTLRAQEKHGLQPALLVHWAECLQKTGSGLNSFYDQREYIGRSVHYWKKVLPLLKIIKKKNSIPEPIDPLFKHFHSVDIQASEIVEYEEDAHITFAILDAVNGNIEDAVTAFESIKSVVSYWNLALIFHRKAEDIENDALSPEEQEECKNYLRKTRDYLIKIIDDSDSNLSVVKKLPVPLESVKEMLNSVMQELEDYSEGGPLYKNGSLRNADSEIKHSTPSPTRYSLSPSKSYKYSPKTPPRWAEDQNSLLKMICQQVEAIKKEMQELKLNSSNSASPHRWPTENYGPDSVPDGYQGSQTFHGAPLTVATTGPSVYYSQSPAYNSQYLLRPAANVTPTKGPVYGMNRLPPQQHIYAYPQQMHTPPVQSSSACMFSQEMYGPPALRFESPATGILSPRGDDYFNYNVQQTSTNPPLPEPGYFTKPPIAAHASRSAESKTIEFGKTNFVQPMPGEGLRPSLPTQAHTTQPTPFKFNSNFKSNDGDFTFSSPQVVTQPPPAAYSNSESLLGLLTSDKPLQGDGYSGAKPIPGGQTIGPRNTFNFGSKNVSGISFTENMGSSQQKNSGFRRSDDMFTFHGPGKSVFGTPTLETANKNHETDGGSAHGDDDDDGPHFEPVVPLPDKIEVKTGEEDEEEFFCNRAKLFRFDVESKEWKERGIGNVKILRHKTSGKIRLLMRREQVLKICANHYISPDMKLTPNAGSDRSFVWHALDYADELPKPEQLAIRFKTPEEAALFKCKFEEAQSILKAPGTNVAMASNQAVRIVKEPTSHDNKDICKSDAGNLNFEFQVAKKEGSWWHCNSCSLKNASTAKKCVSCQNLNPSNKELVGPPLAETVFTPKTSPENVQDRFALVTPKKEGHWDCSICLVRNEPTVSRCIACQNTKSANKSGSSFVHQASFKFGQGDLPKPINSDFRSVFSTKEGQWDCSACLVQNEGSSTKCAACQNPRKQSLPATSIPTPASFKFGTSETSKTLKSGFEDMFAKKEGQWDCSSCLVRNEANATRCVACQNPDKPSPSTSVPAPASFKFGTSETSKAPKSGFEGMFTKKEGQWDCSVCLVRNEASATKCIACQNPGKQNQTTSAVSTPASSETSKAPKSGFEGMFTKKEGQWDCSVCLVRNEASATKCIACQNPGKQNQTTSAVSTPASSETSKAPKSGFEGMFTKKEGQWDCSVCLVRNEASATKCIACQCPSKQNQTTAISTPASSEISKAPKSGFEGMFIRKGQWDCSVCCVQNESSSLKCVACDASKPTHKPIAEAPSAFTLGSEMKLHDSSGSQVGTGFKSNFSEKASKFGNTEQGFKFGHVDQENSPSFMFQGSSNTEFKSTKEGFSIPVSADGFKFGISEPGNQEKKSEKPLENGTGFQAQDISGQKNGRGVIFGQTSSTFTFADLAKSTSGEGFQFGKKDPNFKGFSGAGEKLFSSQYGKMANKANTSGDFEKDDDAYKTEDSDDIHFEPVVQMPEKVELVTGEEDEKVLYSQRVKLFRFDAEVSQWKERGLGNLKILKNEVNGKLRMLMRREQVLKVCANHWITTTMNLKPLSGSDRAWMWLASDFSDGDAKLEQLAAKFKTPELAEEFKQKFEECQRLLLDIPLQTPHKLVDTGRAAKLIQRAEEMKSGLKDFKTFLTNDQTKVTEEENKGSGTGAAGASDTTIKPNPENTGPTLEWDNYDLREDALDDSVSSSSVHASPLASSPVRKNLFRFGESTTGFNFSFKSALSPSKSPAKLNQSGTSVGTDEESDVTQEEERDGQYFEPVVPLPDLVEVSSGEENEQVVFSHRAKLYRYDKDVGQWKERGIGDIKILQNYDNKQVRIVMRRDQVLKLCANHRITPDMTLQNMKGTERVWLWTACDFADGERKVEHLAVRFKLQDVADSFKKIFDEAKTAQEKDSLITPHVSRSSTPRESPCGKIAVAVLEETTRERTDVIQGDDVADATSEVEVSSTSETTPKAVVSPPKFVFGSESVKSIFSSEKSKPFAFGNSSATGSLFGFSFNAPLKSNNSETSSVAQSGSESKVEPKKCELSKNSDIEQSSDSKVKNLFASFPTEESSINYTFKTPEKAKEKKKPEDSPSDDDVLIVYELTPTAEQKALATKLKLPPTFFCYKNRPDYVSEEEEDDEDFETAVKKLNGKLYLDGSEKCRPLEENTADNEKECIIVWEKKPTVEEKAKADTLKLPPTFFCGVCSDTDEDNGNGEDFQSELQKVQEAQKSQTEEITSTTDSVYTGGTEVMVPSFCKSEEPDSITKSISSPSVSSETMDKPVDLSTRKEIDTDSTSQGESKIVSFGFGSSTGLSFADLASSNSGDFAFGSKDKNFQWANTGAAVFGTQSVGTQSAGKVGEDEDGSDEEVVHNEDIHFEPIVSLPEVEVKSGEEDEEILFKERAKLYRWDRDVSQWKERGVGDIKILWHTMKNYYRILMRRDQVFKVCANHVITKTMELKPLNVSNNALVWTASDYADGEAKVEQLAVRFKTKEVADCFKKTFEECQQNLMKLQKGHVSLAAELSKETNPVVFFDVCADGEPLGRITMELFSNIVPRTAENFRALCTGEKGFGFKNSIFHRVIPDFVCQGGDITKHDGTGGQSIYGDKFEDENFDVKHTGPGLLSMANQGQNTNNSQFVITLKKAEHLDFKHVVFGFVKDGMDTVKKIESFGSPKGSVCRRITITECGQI

The Kd is the concentration at which binding is half-saturated. For the substance NUP358 (from UniProt P49792), the Kd was 150 µM and 16 µM.
